Experimental data as given in a protein production outcome set (Wang et al. 2014).

Experiment: label from the status in PepcDB records

| Sequence | protein production |
| --- | --- |
| MSTVETPVYVPRTVVHKFGGTSVADADCYRHVTRLLLAREETVQVTIVSAMKGVTDTLIALAEQAANHSPDWQVLWQQTRTRHCDAAQALLGEHAATLQDWLNTRFNELHEMLVALSVIGMLPSEVLDRLQGLGEVYSAQLLGHYLQSQGEDCVVLDARQVLVVSPGEFGAEVDWATSAQHLAHWRMQHPQRRVVVTGFVASDRTGRAITLGRNGSDYSGAIFAALFEADELHIWTDVDGVMSADPRVVPDAVQLDALSYDEACELAYFGAKVVHPQTMSPVMKRGVPIIIRNTFQPGHPGTRITADSVVSGSVKGLTLSPGLAVLNLEGTGLIGVPGTAERVFAALRNARLSVVMISQGSSEHSICCLVHQTEAERARDALLYAFAHELAIGHVQRVQLTNNISVLAAVGDGMAGHLGVAARLFESLRRAHVNILAIAQGSSERNISVAIDSQQATKALRAAHAAFWLSPQTFSIGVIGPGHVGEALLDQLCAAQQQLLSKANLDLRLRAIVSRRRMLLDERGLGSDWRHAFAAAPEAVDLDAFTAHLQAAHLPHAVIIDCSGSAEVADRYADWLAAGIHVVTPNKQAGSGPLHRYHAIRAAADASGARFRYEATVGAGLPVITTLRDLMDTGDSVTSIEGIFSGTLAWLFNKYDGSVPFSQLIAQARAMGYTEPDPRDDLSGVDVARKLVILARDAGRDISLEDVAVESLVPETLCQLSVADFMERLNEIDATFAERLAAAKQRGCVLRYVAQLSPGHVPSVSLIELPSDHAFVNLRLTDNVVQFTTRRYSENPLIVQGPGAGPEVTAAGVFADLLRVAAGEGARL | failed |
| MSHAHKKHKENAPKSLNFYVITISTSRYEKLLKKEPIVDESGDIIKQLLIENGHKIIGYSLVPDDKIKILKAFTDALSIDEVDVIISTGGTGYSPTDITVETIRKLFDREIEGFSDVFRLVSFNDPEVKAAAYLTKASAGIIGKKIVYLLPGSPDAVKLALKELILPEVGHLVYLVRS | not failed |
| MTIAQEPTALNFECETGNYHTFCPISCVAWLYQKIEDSFFLVIGTKTCGYFLQNAMGVMIFAEPRYAMAELEEGDISAQLNDYAELKRLCEQIKRDRNPSVIVWIGTCTTEIIKMDLEGLAPKLEGEIGIPIVVARANGLDYAFTQGEDTVLAAMAHRCPDKAPVAEAEKNLEHHHHHH | not failed |
| MAKMIILPKLVQKSVVSPKQTSQERVVTSTFSPPKPAGENISVQRRCELSEYHASGHVISHLPPPFAVAKPTPTTSLLPQPVRLINADAEDASCSSTPSWRIKKSLTCVCFNRKRAYERICSNLTPLQEERLKRLRKRMKNYYDASRPDHQDALRALWSATYPDEKLQDLISDQWKNMGWQGKDPSTDFRGAGFISLENLLFFAKTFSTSFQRLLNKQGGKRAAWEYPFAVAGVNITFMIMQMLDLEASKPRSFIRLVFLQMLSESEWAFDLLYCVAFVVMDKQWLDKNATYMEFNDVLRCTRGQLERELMMDDVFRIEDMPSFSLLS | failed |
| MLPVLETTAHSPLTIVWFVLITVLWVGFFFLEGFDFGVAMLLPFLGRDDKDRRLMVNTIGPTWDGNEVWLLTAGGATFAAFPGWYATMFSGLYLPLLLVLLGLIVRGVAFEYRSKNPSSSWRNAFDWMATIGSFLPTLVLGVGFANFVRGLAVGPHSTPDGGTAPLVTTSFWGLFTPFALIGGILFVVLFCAHGANFVALKTMGDMHDRARKTSAKLGWIATVVALVWALMFNIMYVTRDGRQVLTWIICLLVVVLLAAGSAVVAKGREGLAFLCTALGIALMIVACMFAMYGNLGYRPSGIAFDMWIASATGRTLKIMTISACVFVPIVLAYQVWSYWVFRKRLTREAIPDTAVAA | failed |
| MLSELAKQFSTQIQTFFYLIMLINGLLHFIFAGAVARDAGNLYRLGQKPVLVSAPTWAFATLIGGVITATIYWLLHHSTLTRPTMREIRYDKA | failed |
| QKVEFRKRMEKEVSDFIQDSGQIKKKFQPMNKIERSILHDVVEVAGLTSFSFGEDDDCRYVMIFKKEFAPSDEELDSYRRG | not failed |
| MACTVDFRCLDEGFGGKTYKRKRESQEQAAAEAIADEASMDIDGAPPAAKRSAVASSENPDKPIALAVERPTYDGVIAGKVSGRNWKQPRTHRSSGRFVKNRKPDLEEMKRQREIKKAYKERVNELKEEIRSNKVEKRKKKEEREKRKKENVLRTGTKLQKITNPKTLKKISMSKKQRKQLKKIPDEMLSGGSKKSITN | not failed |
| MESITVTELKEKILDANPVNIVDVRTDQETAMGIIPGAETIPMNSIPDNLNYFNDNETYYIICKAGGRSAQVVQYLEQNGVNAVNVEGGMDEFGDEGLDIKSILEHHHHHH | not failed |
| MDKNIWTSRRRRGRSHHRSPALRQCDSSERYTSGASQSSQDSGHHDVECPSTSSSKAGESSVPDLPGFYFDPEKNRYFRLLPGHNNCNPLTKEGIQLKEMESRRLQLLQQEDKQKKKIARVGFNASSILRKNQLGFLNFSSYCRLSHELRVACMERKKVEIQSSDPSALASDRFNFILADTTSDRLFTVNDVKIGGSKYGIISLQGLKAPTFEVHMHENLYFTNRKVNSVCWASLNHLDSHILLCLMGLAETPGCATLLPASLFVSSHQGTDQPGMLCSFRIPGAWSCAWSLNVQANNCFSTGLSRRVLLTNVVTGHRQSYWTNSDVLAQQFAVKTPLLFNGCRSGEIFAIDLRSPSQAKGWKATQIFHDSAVTSVQVFKEEQYLMASDMAGKIKLWDLRATKCVRQYEGHVNEYAYLPLHMHEEEGILVAVGQDCYTRIWSLHDARLLRTIPSPCPTSKANIPSVAFSPRLGGPRGAPGLLMAVQQDLYCFPYSSSCPDGLKEGRWEPSSVSKEDIL | failed |
| MCWPAPPRPSRRSSNGSPLLWQPGGYDRPPPPCRSLPHVCQNFVVRGCLMTISGGTFDPSICEMEPIATPGAIQPHGALMTARADSGRVAHASVNLGEILGLPAASVLGAPIGEVIGRVNEILLREARRSGSETPETIGSFRRSDGQLLHLHAFQSGDYMCLDIEPVRDEDGRLPPGARQSVIETFSSAMTQVELCELAVHGLQLVLGYDRVMAYRFGADGHGEVIAERRRQDLEPYLGLHYPASDIPQIARALYLRQRVGAIADACYRPVPLLGHPELDDGKPLDLTHSSLRSVSPVHLDYMQNMNTAASLTIGLADGDRLWGMLVCHNTTPRIAGPEWRAAAGMIGQVVSLLLSRLGEVENAAETLARQSTLSTLVERLSTGDTLAAAFVAADQLILDLVGASAAVVRLAGQELHFGRTPPVDAMQKVLDSLGRPSPLEVLSLDDVTLRHPELPELLAAGSGILLLPLTSGDGDLIAWFRPEHVQTITWGGNPAEHGTWNPATQRMRPRASFDAWKETVTGRSLPWTSAERNCARELGEAIAAEMAQRTRAELARLRHYDPLTGLANRSYLQERLAQDGQSAAALLFIDLDRFKAVNDSMGHGVGDGLLIEVARSLVATVRPHDLVVRLGGDEFVVLCHRLDAAGIVSLAERLRQVLEQPFEVAGRKCHISASIGIAMADSIGDLDLVRAADIAMYAAKKNGGNRGELFRPSLYEETTQLVELDNDMRGAIESEQFHLVYQPIFALNPETERLVGFEALLRWDHPLHGALQPGIFIPLAERLGHIHAMGNWVLRRAILQLQAFRSAGPELDLKMNVNVSPLQLARPDFLARLADLLAQVPDLPRHALCLEITETSLSDEAVSEALISIRALGVRIAIDDFGTGFSSLACLRRLPVDVAKLDRAFLGGGHTAAQDHRFFAAVTGLVHAADLKVVQEGIETLDQLALVRAAGADFAQGFHLAAPLSIAAALGLIAASRKE | failed |
| MAPPTPHLAVRGSDGTLLLHGPPNCQESSAFQRDDRQGRYMTFSNDGTLFAWCNGSQVTVLKVPSGDLVKSFDLPKTTALEFSPLNKVLATWQQYTKTQDNPQGEANLQLWDLQTGACMKAFYQKKMTGWCPSWADDESISVRNVNNELHFFENNNFETIANKLHLQKVSEFALSPGSQPSKVAVYVPGSKGAPSFVRLYQYPNFGGPTCALANKSFFKADKVNMLWNKKATAVLVTASTEVDKTGASYYGEQTLHYVATNGESAVVQLPKNGPIYDVSWSPNSTEFCVVYGFMPAKATVFNNKCESVFDFGTGPRNAAFYSPQGHILVLAGFGNLRGQMEVWDVKKYKQVSKPQAEDTTHFSWCPDGEHIVTATCSPRLRASNGYKIWHYTGTVLYKHETPSGKELWEVLWQPFPAGVFPERAVKYQALPSELGSTEAKPAQAYRPPALRNKPQTASSKLHEEEPPQNMKPGAAGEKQPSKAALKNQKRREAKKAAKQENKPDEAPPPAADPAPVSHVTSSCGDPETDKKIKNLKKKLKAIDELKEQQAAGKVMQKNQLEKMQKEAQLLKELEDLELGL | not failed |
